The nature of the series: soluble on expression in E. coli; label from the status in PepcDB or PDB records.
Consider “MGHHHHHHSHVHMKDFFYFRNHFCITFELLGINLYELMKNNNFQGFSLSIVRRFTLSVLKCLQMLSVEKIIHCDLKPENIVLYQKGQASVKVIDFGSSCYEHQKVYTYIQSRFYRSPEVILGHPYDVAIDMWSLGCITAELYTGYPLFPGENEVEQLACIMEVLGLPPAGFIQTASRRQTFFDSKGFPKNITNNRG”, for which the “soluble on expression in E. coli” value is “soluble”.
As for “MGSDKIHHHHHHMTGHYSKTEHQYILLTSESASFDHYSVYRDPQLPQIFSHNFVQLHDTFPLERLLNFLPSVPKLLDANYLHLKASPQHVFPLGLKQSLVKSGFVVEDELLYDMKLSDWKGQMGHPLTAWGTAKSLSDGSSIMKIYDSIYIGEAIAEQKLKRKYPFYEADIIILVVCYSDQAQKVPIGCGELFIDHQEKTAKIEEVAILDQFQRKGYGSILVKEMLSIAKSLGMEAAYLVAASTDGATQFYEKLTFKKYERVHTVFHYFLT”, the “soluble on expression in E. coli” value was “not soluble”.
Under “MAAATTTASAFKWPWQYDFPPFFTIQKSLNTKDKQLEAWARLVIDYAQHNKIYSLDIAEATTSELFNNQKLNRRLSTDGVNTVLQYLEQKKLIEFTDNGRTRFHIFWRRPDVWANMIYQWAVENAFINTPLTLYEITHGDDTTNESFHNLEREILMKALTCLEEQRRAQLMNIGGDNEGVKFI” stands “soluble”.
Consider “MGHHHHHHSHMKNMEQQHIEVVGKLGSTYGIRGWLRIYSSTEQAESIFDYQPWFLKIKGEWQSIELENWRYHNHEIIVKLKGVDDREAAQILANVEIGVDLSVFPELEEGDYYWHDLIGCTVVNLEGYTMGTVTEMMETGSNDVLVVKANTKDAFGKQERLIPFLYEQVVKRVDLTTKTIEVDWDAGF”, for which the “soluble on expression in E. coli” value is “soluble”.
For “MQEHFHFTTDPAKLQKQYAAIFCFVSAQLSLIQMYLHRRNRHLVKQEDEVVMAVHLLGKLLGFSSERAWHRFVTGNLFTNGSFLERSRYNRRCRALGFAVKWIRHELAKRGQHHAYAVVDSLPLPLCHPARMQRVKRFRGIADMGYCASKKQWYYGFKLHLQVTHQGLAMGYVVTEASCHDVKAAETVMTQIPHPYNFGDKGYISRALREKLYEEHQAAFWTPSRHNQKHGPSKAWEEWIRKKRKVIETVFSILVDQYRITDIRANSIAGFEVALDGILVAYSLVTLGLVER”, the “soluble on expression in E. coli” value was “not soluble”.
Next, “MGSDKIHHHHHHMDRINYKHLHYFWHVARAGSVTRAAGQLNVSMQTISGQITKLEQQLGRSLFRQQGRGLALTEAGRLALDYADRIFLLGEELETALADPLLDQTLRLAAGISDVVPKGIASRLLRPALRTNGRLRLSCGEGDFDELIGELGRHRLDLVLADRPVASGEQQQFQSWPLLRCPVQLLAAPELHARCQAGFPASLEQAPLLLPSRDNVLRRQLEHWFDANGVRPDLVGEFDDHALMETFARQGLGLLPAPVSPDGEADHPGLLPLGALDGVWEHYYVTASRRKLQHPALQAILQAWT”: “not soluble”.
Under “VKSNKGFEAIAWDPLRQRLIIGEERPPKLYTWNTDGRSPLKGEKQPLPSDELDLRNLSALGVDPRTGHLLVLSADSNMLLELDEQGQQVSFMTLLGGFNGLE” stands “not soluble”; under “MEPAGPCGFCPAGEVQPARYTCPRCNAPYCSLRCYRTHGTCAENFY”, “soluble”; under “SLQKLQAQGVHHITLVGAGRQTSIDFWEGVLGMPFIFEQPNLDKASESHLYFDPGDGRLITVFTDESRTPQKRRTPTDPGCVHHIAFAVSRVTFLQAVARLDERGIKHSGVKDRGFMDSIYFEDPLGLLIELASYRFEPPAGFTHADVLMQAHRLRVGRGDYNIAEVHLADAIQVLVESSREG”, “soluble”.
For “MGREFLDLFEQWAESYDRSVEGYDEQYRDVFAGYDRILSTVADKAGQVVLEFGVGTGNLTKKLLERGKRVYGIEPSAPMRKKAAEKLNGRAVILEGDFLQFPTPPEPIDTIASTYAFHHLTDAEKDEALAKYSQLLHPGGKIVFADTAFRDKEAFRQAIEEARARGFHDLADDLEREYYTTLDVLASLFSKHGFSASFAQQNAFVWVMEAVKQTT”, the “soluble on expression in E. coli” value is recorded as “not soluble”.
For the sequence “MGSDKIHHHHHHMTDARDLTLPTGYIDLLGELKNRVRAARTRALRTVNTQLIELYWSIGQDVSAQQEHQGWGSGVIKRLADDLRAEFPEMKGFSARNVQYMTTFARAWNGGAIAQQPVAQLPWGHVTVLLDKLADQEKRDWYASEAVEYGWSRNVLMNMIMNKSLERTGSAPSNFAQHLVAQDSELAQQAAKDPYSFEFLGLSGEVAERDLEQALMDRITETLREMGPGFAFVGRQVHFDVGGDDFYIDLLFFHVEQLRYYVVELKTGKFQPEYAGKLNSYIALVDDRLRRETHADTVGILICGSKNDHTVRYSLGRATSPMAVASYTYDALPADVRDELPDADRLTAALDWTED”, the “soluble on expression in E. coli” value is recorded as “not soluble”.
For the sequence “MNQTLLSDFGTPVERVERAIDALRNGRGVMVLDDESRENEGDMVFAAEAMTLEQMALTIRHGSGIVCLCITDERRQQLDLPMMVTHNSSQFQTAFTVTIEAAEGVTTGVSAADRLTTIRKAIADNAKPADLNRPGHVFPLRGQPGGVLSRRGHTEASIDLATLAGYKPAGVLCELTNDDGSMAHAPEVIAFAKLHDMPVVTIDDLAAYLQSRAKKAS”, the “soluble on expression in E. coli” value is given as “not soluble”.
Next, “MLLENGWIVGVKQVLSPHFDLRPEGEMPSLLVIHSISLPPSEFGGPYIDQLFTGTLNADEHPYFASIVHLRVSAHCLIRRDGEIIQYVPFDKRAWHAGVSVFAGRERCNDFSIGIELEGTDVLPFTPVQYQRLTEISAVLFAHYPITVERVAGHSEIAPGRKTDPGLAFDWFFYQQNLAKLLV”: “not soluble”; “MMKTMRIAAIPGDGIGKEVLPEGIRVLQAAAERWGFALSFEQMEWASCEYYSHHGKMMPDDWHEQLSRFDAIYFGAVGWPDTVPDHISLWGSLLKFRREFDQYVNLRPVRLFPGVPCPLAGKQPGDIDFYVVRENTEGEYSSLGGRVNEGTEHEVVIQESVFTRRGVDRILRYAFELAQSRPRKTLTSATKSNGLAISMPYWDERVEAMAENYPEIRWDKQHIDILCARFVMQPERFDVVVASNLFGDILSDLGPACTGTIGIAPSANLNPERTFPSLFEPVHGSAPDIYGKNIANPIATIWAGAMMLDFLGNGDERFQQAHNGILAAIEEVIAHGPKTPDMKGNATTPQVADAICKIILR”: “soluble”.
For “MGSDKIHHHHHHMKKRLGSQTARIDSKPRIVSAVSMVGPKEGRGPLKDYFDIILSDDMNGEESFEKAESNMLYTVITEVIKKSNLTENDIDYLFAGDLLNQITSSSFAARDAKIPFYGLYGACSTMTESLSIAAMIMDGGFADYTIAATSSHFSAAERQFRYPLEYGSQRKPDAQWTVTGAGAMLLARQGDFPYITFVTAGKVKDYGITSPDSMGEAMAPAAVDTIKQHFKDTGRTPQDYDVIATGDLGRVGKKITEDLLKKEYGYDMSNIYMDCGEKIFNCDEQDTNSGGSGCGCSAVVDCGYIYKNMLSGKIKKALLISTGALMSTTSNLQGESIPGIAHAVSIEFGGMKNE”, the “soluble on expression in E. coli” value is given as “not soluble”.
In the case of “MHGLQDDPDLQALLKGSQLLKVKSSSWRRERFYKLQEDCKTIWQESRKVMRSPESQLFSIEDIQEVRMGHRTEGLEKFARDIPEDRCFSIVFKDQRNTLDLIAPSPADAQHWVQGLRKIIHHSGSMDQRQK”, the “soluble on expression in E. coli” value is reported as “soluble”.
Consider “EVQLVESGGGLVQPGGSLRLSCAASGFTISSSSIHWVRQAPGKGLEWVAWVLPSVGFTDYADSVKGRFTISADTSKNTAYLQMNSLRAEDTAVYYCARRVCYNRLGVCAGGMDYWGQGTLVTVSSASTKGPSVFPLAPSSKSTSGGTAALGCLVKDYFPEPVTVSWNSGALTSGVHTFPAVLQSSGLYSLSSVVTVPSSSLGTQTYICNVNHKPSNTKVDKKVEPKSCDKTH”, for which the “soluble on expression in E. coli” value is given as “soluble”.
For the sequence “MSLPNEQPGTGPADTTLEQQDTAAAEVGHPRRIRSFVRRAGRTSTGQQRAIDELGPRFLLPYAAAPLDWEAAFGRTGARRIFEIGFGMGETSAHIAQLRPDDDFLGVEVHEPGVGALLKLIGERGIGNVRIVSHDAVEVLAQMIPEGTLDGIHVFFPDPWHKKRHNKRRLIQGPFVARLAAHLRPGGYLHCATDWEEYAHQMLEVLSAEPLLENTADGFAPRPDYRPVTKFEKRGLRLGHGVWDVVFRKREGHHHHHH”, the “soluble on expression in E. coli” value is “not soluble”.
Next, “MGSDKIHHHHHHKDSNKWKMTGDVSVQDDIMTLKGTDALAVLKNGKYKNFDLTLDLRTTPGGKGAVWFHTDPTLKKGYRIAINNDRADKVWWKMTGSLVSVRNLTKSFVKEDQWFKMDIRVAGQEIDVNINGEPVVEYIQPTAPYRTDANAYALLSEGTFAIESDGSGEIQIKNITVNVIDESTIDINAQLAEANDEQNDEIIKLHQSDFPVLDYHVHLKGGLTKEVAAKQSRKTGINYTIAPNCGIGFPITNDQQVMDYLNEMRSQPFILGMQAEGREWITTFSPETLKEFDYVFTDALTFKDNKGRRTRLWIPEETWIENEEQYMDMIVDRICSVLEEPVDIYVNPCFLPSPMDKRFDEFWTEARMNRFVEALAKSGKALEINELYNIPNKAIIMKAKAAGVKFTFGSNNVTPNVSDLSYSIRMMKECGLTAEDMYKPKVKI”: “not soluble”.
Under “MRRMVDHDALHRRWLGALVGARGGAAQPDPAPYGENLLRRWSEPQRRYHTVEHLAAVLDRVDLLAEYADDPDVVRLAAWFHDAVYFPDRSENEERSARLAERALPEAGVSGARTAEVARLVRLTVTHDPADDDRDGRVLCDADLAILAAPPKTYAAYAAAVREEYAFVPDDSFRAGRAAVLRQLLDLPRLFRTPYGEREWEERARENLREELARLDDRGTSGAAQLEHHHHHH” stands “not soluble”.
“MSLALSTEQKTKMWAMLNQTRGQIGLTAYKDYIFGILFYKYLSEKATHWLNGVLRGENWENVYSQDSVKALNYMKKNLGYAIQPNEFFVDWKKAIDTDRFNIGMMTDTFTHFNQQIAFEAKNDFEGIFDGMRFDSADLGANAQARASVMISMIELLSSPEFDLSGSNDTVSDIYEYLVAQFATVLASDMGQYYTPKEISNVMARILTFGREDMEKFSIFDPTVGSGSLLLTTASYMKNSGRRGVIKYYGQEKDATPYRLSRMNLMMHGIEYNDININHADTLESDWPDGVVDGKDTPRMFDAVMANPPYSAHWNNKDREDDPRWREYGVSPKTKADYAFLLHCLYHLEDNGRMAIILPHGVLFRGASEGRIRKALIDKHQIEAIIGFPDKLFLNTSIPVCVVILRKNRIESDILFVDASKGFEKIKKQNNLRSEDVEKIVDTVINRKEIEKYSHVATLDEIKENDYNLNIPRYVDTFEEEEAIDLVALGNEMVTLNADIKKAETDFLGLLDELAVTPDTKEIIEATKAVFREGHHHHHH”: the “soluble on expression in E. coli” value is “soluble”.
Under “MGNKAERHRAIQEIVRREEIGTQKELVERLRQLGFEVTQATVSRDIAELGLARIALGKGRHRYVLPAADLPENAYEELKRQFGLFVRDVDRGGNLLVVKTAEGHASGIAYLLDRLRRDEIVGTLAGDDTILVVARTEEAAQALEDEFAGLLVEGRALRRALSGS” stands “soluble”.
Next, “MSLKKRYDLSYNFNVHEVPRAALEERFDPKSPTKRSIAIVFEEIKNWISDIPYVISLSYTDAQDKSKKIMNVTTDSLTKVLQADLPGSYNLEYIESKFCPGEIVGKSNVLVTMPVAPTMEVKSFPILDQCVGQVGLNFELSFTGAPPYYYNTKIYKLENGERKLYDAKRYTSEGTRNRFSYSPPKEGNYEIVFDTVSNKLFTEPIKLEPVKEYTFKTSMRVKPSASLKLHHDLKLCLGDHSSVPVALKGQGPFTLTYDIIETFSSKRKTFEIKEIKTNEYVIKTPVFTTGGDYILSLVSIKDSTGCVVGLSQPDAKIQVRRDEGHHHHHH”: “soluble”; “MGFHPIELRIQILGLSAFGVDSKEIAAALDVPVRSVQRIIQRAKERGFDPATDPRVKMEYVEDAERSGRPKKGSKVMAAKSQAGSTSGSESVVAAGSEVGDGNRNSMPEAQA”: “not soluble”.

(Values after the DeepSol protein solubility set.)
